Test [1] has as its target cynomolgus monkey IL-5 (cynomolgus monkey). Put plainly: cell-based or functional assay.
Test [2] concerns the target recombinant human IL-5 (human) (UniProt P05113). The test is described as follows: cell-based or functional assay.

In the case of Mepolizumab (antibody), the IC50, inhibition of IL-5 driven proliferation of TF-1.6G4 cells (Mean, pM) is 584 pM in test [1] and 534 pM in test [2].

These data come from patent US20180186873A1.
